# Data as given in the RNAGym collection of RNA variant scans (doi:10.1093/nar/gkz1192).
# B1: CPEB3 Ribozyme (parent)
# chain: UAACAGGGGGCCACAGCAGAAGCGUUCACGUCGCAGCCCCUGUCAGAUUCUGGUGAAUCUGCGAAUUCUGCUGUAUAUCUC
# Variants of: B1
# Experiment: self-cleavage, relative activity (ratio to wild type); higher = more cleavage; in vitro, sequencing
# In short: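 Relative activity compares each variant's cleaved/total read fraction with that of the unmutated ribozyme. To get these fractions, barcoded CPEB3 ribozyme libraries from rounds of error-prone PCR were transcribed with T7 RNA polymerase for 5 hours at 37°C and then given 15 min of DNase I treatment before EDTA was added. The RNAs were reverse transcribed with template switching and sequenced on Illumina, and DNA sequencing linked barcodes to variants. A minimum of 5 reads applied, and three batches were averaged.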
row,Variant,self-cleavage
1,A5G U48A,0.45
2,A5G U48C,0.57
3,A5G U48G,0.1
4,A5G U49A,0.53
5,A5G U49C,0.31
6,A5G U51A,0.63
7,A5G U51C,0.68
8,A5G U51G,0.68
9,A5G U54A,0.82
10,A5G U54C,0.64
11,A5G U54G,0.47
12,A5G U58A,0.24
13,A5G U58C,0.43
14,A5G U60A,0.31
15,A5G U60C,0.36
16,A5G U60G,0.35
17,A5G U66A,0.23
18,A5G U66C,0.38
19,A5G U66G,0.44
20,A5G U67A,0.39
21,A5G U67C,0.34
22,A5G U69A,0.49
23,A5G U69C,0.37
24,A5G U69G,0.49

row,Variant,self-cleavage
1,A5G U72A,0.48
2,A5G U72C,0.77
3,A5G U72G,0.79
4,A5G U74A,1.03
5,A5G U74C,1.01
6,A5G U74G,1.41
7,A5G U76A,0.85
8,A5G U76C,0.76
9,A5G U76G,0.6
10,A5G U78A,0.88
11,A5G U78C,0.63
12,A5G U78G,0.91
13,A5G U80A,0.79
14,A5G U80C,0.66
15,A5U,1.04
16,A5U A13C,1.15
17,A5U A13G,1.01
18,A5U A13U,1.16
19,A5U A15C,1.18
20,A5U A15G,0.93
21,A5U A15U,1.1
22,A5U A18G,0.87
23,A5U A18U,0.34
24,A5U A20C,0.49

row,Variant,self-cleavage
1,A5U A20G,0.91
2,A5U A21C,0.29
3,A5U A21G,0.77
4,A5U A21U,0.53
5,A5U A28C,0.77
6,A5U A28G,0.83
7,A5U A28U,1.12
8,A5U A35C,1.2
9,A5U A35G,1.19
10,A5U A35U,0.63
11,A5U A45G,1.02
12,A5U A45U,0.54
13,A5U A47G,0.95
14,A5U A56C,0.91
15,A5U A56G,0.81
16,A5U A56U,0.9
17,A5U A57C,0.7
18,A5U A57G,0.97
19,A5U A57U,0.67
20,A5U A64C,0.32
21,A5U A64G,1.03
22,A5U A64U,0.44
23,A5U A65G,0.55
24,A5U A65U,0.28

row,Variant,self-cleavage
1,A5U A75G,0.95
2,A5U A77G,1.09
3,A5U A77U,1.16
4,A5U C11G,0.5
5,A5U C12U,1.14
6,A5U C14A,1.19
7,A5U C14U,0.88
8,A5U C17G,0.26
9,A5U C17U,0.73
10,A5U C23G,0.08
11,A5U C23U,0.25
12,A5U C27G,0.21
13,A5U C27U,0.22
14,A5U C29A,0.36
15,A5U C29U,0.54
16,A5U C32A,0.32
17,A5U C32G,0.16
18,A5U C32U,0.31
19,A5U C34A,0.65
20,A5U C34U,0.55
21,A5U C37U,0.82
22,A5U C38A,0.34
23,A5U C39U,0.95
24,A5U C40A,0.09

row,Variant,self-cleavage
1,A5U C40U,0.78
2,A5U C50A,1.01
3,A5U C59A,0.43
4,A5U C59G,0.37
5,A5U C62G,0.49
6,A5U C62U,0.22
7,A5U C68A,0.29
8,A5U C68U,0.99
9,A5U C71A,0.48
10,A5U C71U,0.79
11,A5U C79U,1.24
12,A5U C81A,1.24
13,A5U C81G,1.29
14,A5U C81U,1.17
15,A5U G6A,0.52
16,A5U G7A,0.22
17,A5U G7C,0.48
18,A5U G7U,0.35
19,A5U G8A,0.12
20,A5U G8C,0.1
21,A5U G9A,0.45
22,A5U G9U,0.34
23,A5U G10A,0.12
24,A5U G10C,0.5

row,Variant,self-cleavage
1,A5U G16A,1.05
2,A5U G16U,0.66
3,A5U G19A,0.72
4,A5U G22A,0.28
5,A5U G24A,0.4
6,A5U G24C,0.36
7,A5U G24U,0.43
8,A5U G30A,0.27
9,A5U G30C,0.4
10,A5U G30U,0.26
11,A5U G33A,0.27
12,A5U G33C,0.16
13,A5U G36A,0.39
14,A5U G46A,0.36
15,A5U G52A,1.1
16,A5U G52U,1.15
17,A5U G53A,1.14
18,A5U G55U,1.15
19,A5U G61U,0.72
20,A5U G63A,1.06
21,A5U U25A,0.26
22,A5U U25C,0.41
23,A5U U26A,1.05
24,A5U U26C,0.72

row,Variant,self-cleavage
1,A5U U31A,0.5
2,A5U U31C,0.92
3,A5U U41A,0.33
4,A5U U41C,0.98
5,A5U U43A,1.24
6,A5U U43C,0.76
7,A5U U48C,0.66
8,A5U U49A,0.44
9,A5U U49C,0.55
10,A5U U51A,0.96
11,A5U U51C,1.13
12,A5U U51G,1.16
13,A5U U54A,1.1
14,A5U U54C,1.09
15,A5U U58A,0.53
16,A5U U58C,0.61
17,A5U U60A,0.76
18,A5U U60C,0.58
19,A5U U66A,0.46
20,A5U U66C,0.45
21,A5U U66G,0.93
22,A5U U67A,0.63
23,A5U U67C,0.29
